Measured values taken from article PMC3489985 (Analytical biochemistry, 2012).

Columns and labels:
CpGSTD1 = CpGSTD1 (Culex pipiens, UniProt H9M8E3); test: spectrophotometric enzyme kinetics; type: biochemical
[1] = test system: O=[N+]([O-])c1ccc(Cl)c(Cl)c1; test: spectrophotometric enzyme kinetics; type: biochemical, Culex pipiens; settings: 30.0 °C
[2] = substrate: Cc1cc(=O)oc2ccc(OC(=O)[C@H]3[C@@H](/C=C(\Cl)C(F)(F)F)C3(C)C)cc12; test: fluorescent enzyme kinetics; type: biochemical, Culex pipiens; settings: GSH; 30.0 °C
[3] = substrate: Cc1cc(=O)oc2ccc(OC(=O)[C@H]3[C@@H](C=C(Cl)Cl)C3(C)C)cc12; test: fluorescent enzyme kinetics; type: biochemical, Culex pipiens; settings: GSH; 30.0 °C

## O=[N+]([O-])c1ccc(Cl)c([N+](=O)[O-])c1 [CDNB, 1-chloro-2,4-dinitrobenzene]
CpGSTD1
  Km: 240 ± 18 µM

## CpGSTD1 (Culex pipiens)
[1]
  Km: 691 ± 106 µM
  Vmax: 2.32 ± 0.152 µmol/min/mg
  kcat: 0.92 s⁻¹
  kcat/Km: 1300 M⁻¹ s⁻¹

B1: CpGSTD1 (Culex pipiens) (protein)
chain: MDFYYLPGSAPCRAVQMTAAAVGVELNLKLTNLMAGEHMKPEFLKLNPQHTIPTLVDNGFSLWESRAIQIYLVEKYGKDDSLYPKDPQKRALVNQRLFFDMGVFYQRFGDYWYPQIFAKQPANADNEKKMQEAVAFLNTFLEGHQYAAGDQLTIADLSLAASAATYEVAGFDFSKYPNVQAWLERCKKNAPGYDLNQAGADEFNAKFLGGK
[2]
  Km: 10.0 ± 0.7 µM
  Vmax: 0.487 µmol/min/mg
  kcat: 0.19 s⁻¹
  kcat/Km: 19000 M⁻¹ s⁻¹
[3]
  Km: 9.0 ± 0.8 µM
  Vmax: 0.298 µmol/min/mg
  kcat: 0.12 s⁻¹
  kcat/Km: 13000 M⁻¹ s⁻¹
